Test results from patent US6054163.

Molecular target: piscicolin 126 (Carnobacterium piscicola JG126)

Substance | residual bacteriocin activity after enzyme treatment (% of original activity; bioassay with Listeria monocytogenes 4A) [%]
Catalase (enzyme) | 100
Lipase (enzyme) | 100
Lysozyme (enzyme) | 100
Pepsin (enzyme) | 100
Protease I (enzyme) | 0
Protease XIV (enzyme) | 3
Protease XXIII (enzyme) | 0
Trypsin (enzyme) | 6
α-Chymotrypsin (enzyme) | 0
β-Chymotrypsin (enzyme) | 0
